Assay results taken from PMC5548637 (International journal of biological macromolecules, 2017).

Biological target: the molecule itself
Assay: AUC

B1: TBC1D4 CTR (TBC1D4 1192-1299) with His6-tag (domain or fragment, human, UniProt O60343 1192-1298, looked up)
chain: SCEDSETLEKLERANSQLKRQNMDLLEKLQVAHTKIQALESNLENLLTRETKMKSLIRTLEQEKMAYQKTVEQLRKLLPADALVNCDLLLRDLNCNPNNKAKIGNKP
Q: With B1 as the protein, how does the “stoichiometry N” value read?
A: 2

B2: TBC1D4 RabGAP-CTR1 (TBC1D4 865-1299) with His6-tag (domain or fragment, human, UniProt O60343 865-1298, looked up)
chain: ASRDELQSRKVKLDYEEVGACQKEVLITWDKKLLNCRAKIRCDMEDIHTLLKEGVPKSRRGEIWQFLALQYRLRHRLPNKQQPPDISYKELLKQLTAQQHAILVDLGRTFPTHPYFSVQLGPGQLSLFNLLKAYSLLDKEVGYCQGISFVAGVLLLHMSEEQAFEMLKFLMYDLGFRKQYRPDMMSLQIQMYQLSRLLHDYHRDLYNHLEENEISPSLYAAPWFLTLFASQFSLGFVARVFDIIFLQGTEVIFKVALSLLSSQETLIMECESFENIVEFLKNTLPDMNTSEMEKIITQVFEMDISKQLHAYEVEYHVLQDELQESSYSCEDSETLEKLERANSQLKRQNMDLLEKLQVAHTKIQALESNLENLLTRETKMKSLIRTLEQEKMAYQKTVEQLRKLLPADALVNCDLLLRDLNCNPNNKAKIGNKP
Q: How did the “stoichiometry N” value turn out when B2 was run?
A: 2
